# Reference: the DeepSol protein solubility set
# Experiment: soluble on expression in E. coli; label from the status in PepcDB or PDB records
row,Sequence,soluble on expression in E. coli
1,SLTQSLLMYMDGPEVIGSSLGSPMEMEDALSMKGTAVVPFRATQEKNVIQIEGYMPLDCMFCSQTFTHSEDLNKHVLMQHRPTLCEPAVLRVEAEYLSPLDKSQVRTEPPKEKNCKENEFSCEVCGQTFRVAFDVEIHMRTHKDSFTYGCNMCGRRFKEPWFLKNHMRTHNGKSGARSKLQQGLESSPATINEVVQVHAAESISSPYKICMVCGFLFPNKESLIEHRKVHTKKTAFGTSSAQTDSPQGGMPSSREDFLQLFNLRPKSHPETGKKPVRCIPQLDPFTTFQAWQLATKGKVAICQEVKESGQEGSTDNDDSSSEKELGETNKGSCAGLSQEKEKCKHSHGEAPSVDADPKLPSSKEKPTHCSECGKAFRTYHQLVLHSRVHKKDRRAGAESPTMSVDGRQPGTCSPDLAAPLDENGAVDRGEGGSEDGSEDGLPEGIHLDKNDDGGKIKHLTSSRECSYCGKFFRSNYYLNIHLRTHTGEKPYKCEFCEYAAAQKTSLRYHLERHHKEKQTDVAAEVKNDGKNQDTEDALLTADSAQTKNLKRFFDGAKDVTGSPPAKQLKEMPSVFQNVLGSAVLSPAHKDTQDFHKNAADDSADKVNKNPTPAYLDLLKKRSAVETQANNLICRTKADVTPPPDGSTTHNLEVSPKEKQTETAADCRYRPSVDCHEKPLNLSVGALHNCPAISLSKSLIPSITCPFCTFKTFYPEVLMMHQRLEHKYNPDVHKNCRNKSLLRSRRTGCPPALLGKDVPPLSSFCKPKPKSAFPAQSKSLPSAKGKQSPPGPG,not soluble
2,MTINMALHYPNYFAALVPQATAYSYYQYERNNDGTYKMIEDKNSISGKSSIRTNKIWFDSQKVKTLKNIPIWFIHSAADKVVNPKTYSLPIYKSLLDSGAKNKWFSYYDNVQGKDLKDTTYNGHWSWVYFFNNQVSSVQDVKTIKKSSKLSGFKPSNKSKGGAATAKEGKKSYNNVFDWLNDQKK,not soluble
3,MGFFVSEGERCMTYCATEVTFPQGITSLETQVMLLQTHQNGMDIVTYSTPFHPVSHIWPDHPADRGILIWQGSEYAVTDCVVGAIEQASGHLYVGNNIPVKREESGWLFVVVHRLGEVIAACQVGDKVQLQVDTQYQASLSRGHSAGHLGYLALNKVLAQGYWRKDAERKDPQGYFDFNSYAQISSDVTPDCSTDVYRLGKTLRKRGLNSDDVLRDLSFIEQKTNEQLAQWLALASPIRLECTGSTLTDSRYWECDLHEANIARIPCGGTHCKGLTAFQSIQVTLKQVDEQHIEAVTCAQPSESELEHHHHHH,soluble
4,MTSTKAYVLALAGCTNSGKSTLAKEFQRFFGAGETTIINQDEFYKTENEVEKIYHPDAEHLTDEGYYWSFDEKEAINIDQFRQRILNESKVYKNVIIDGNMITEMDEIVDLCDRIVVMTLDFKTCKRRREARTDYVPADTPGYFVNVAFPAYVRHLERARQRSRTDSRLTFIDVSESKFDDKNKSIVNFRQQILDDHIKLTDEVIDVKVVDQLVSHPSCGAISTFNGVTRDNHGGRDVSNLSYDCHDLMAYKKLRGICAEIRAEYPDVKKIAIFHRLGKVDIGESSVIISTSSPHRKTAIQATEKCIDLLKEHAPIFKYEEYSNGEVDGVWKSNIEDSKQ,not soluble
5,MMQFEVKDLINKIKKDGLEEAERASNDIILKAKREAEEIVARAEEAARVLKAKSEKEANDYKCHALEASRQAIRDLIIGVEKNLKSLFENALKDNVTEVLSDNNFLAELIIKITDSWAKGEKLVIQLNESDFSSLEQILRLKLGNKLKEGMELRPFRGISKGFKIQKKNIGLHYDFSAETIADILFDYLNPRFKEVIKVV,not soluble
6,MGSDKIHHHHHHLGESGKNFDHRRGWVESRLFELEAVFAIDVAAFAVMSNHLHVVLRIDIETANCWTDREVLEQWHKLFNGDEITQKFVKGEVVETHEVLRLKHSIATYRSRLCDISWFMRCLNEPIARQANQEDSCTGRFWEGRFKSQALLDEAAVLACMAYVDLNPIRAKMASTPEQSDHTSIQLRIQAALRGEQPISLLPFIGNERKNQPKGIAFSLQDYLELVDDTGRIIRNDKHGAISTNSAKLLTRLNIFQENWLKLTTEFGKLFHGPVGTLQELTSYCEHLEKRRRHFASCCQHLMAS,not soluble
7,MKITVIGAGNVGATTAFRLAEKQLARELVLLDVVEGIPQGKALDMYESGPVGLFDTKVTGSNDYADTANSDIVVITAGLPRKPGMTREDLLSMNAGIVREVTGRIMEHSKNPIIVVVSNPLDIMTHVAWQKSGLPKERVIGMAGVLDSARFRSFIAMELGVSMQDVTACVLGGHGDAMVPVVKYTTVAGIPVADLISAERIAELVERTRTGGAEIVNHLKQGSAFYSPATSVVEMVESIVLDRKRVLTCAVSLDGQYGIDGTFVGVPVKLGKNGVEHIYEIKLDQSDLDLLQKSAKIVDENCKMLDASQG,soluble
8,SNHFGNHCTNTSGVVCHNNYNCTIDNSIHYADTRGVVSHHRENITGHHGLVFPAATMNGYGPATSFPDMRENGHLMVNQNRPVTLRPSMSQQQPQPQPLSDEYNKVETGTAEQVYVPSRD,soluble
9,MSLENHWYEVKQTQSEGFFKDLNGSRTKESISYFPKIYYRMKDGLLSIRVQISLGKYQDQLLKLEKKLESGLYCELVEKELKDSYVDYTLLYDMIANRIGIEEAVVENGALRLMKNQVWAYDFLPHMLIAGGTGGGKTYFLLTIIEALLKSDAELFILDPKNADLADLGTIMTHVYSQKEQISACVEDFYERMMVRSRLMKEMPNYKTGENYAYLGLSPNFLVFDEYVAYMEMLTTKESAVILNKLKQIVMLGRQSGFFLILACQRPDAKYLGDGIRDQFNFRVALGRMSELGYSMMFGEVDKIFFMKQIKGRGYVDTGGGVVSEFYTPLVPKGYDFLESTKTIVQNNINEGHHHHHH,soluble
10,MGSDKIHHHHHHMLLALSTWSEIEERLKSSTSVVVPIGSNEQHGPTGLLGTDWLCPEIIAHEASKRASDKVLVAPTFNIGMAQHHLAFPGTIFLRPSTFIAAIGDWVRSLGAHGFTRIYFLNGHGGNVASIEAAFSEIYADYSFRQQRAPFALKLKNWWDLAGVNALANRQFPTGHGSHATPSEIAVTQWAYPETIKTAAYSPPIAPTGPIREALDFRARYADGRMGSDPAQATPEKGGELVSMAANALIEDLAAFAAERAPA,not soluble
11,MIHVGTCGFCEAREKYFKDFDAVEVQQTFYKVLQEKTLERWRKKAPEEFTFSIKAFQGVTHPSNSPTWRRSNVKPSKNVGLLRPTNEVLHYWRITLKEAKVLGARFILIQLPRSFKEGEESFENAEKFFNAIDRGDFEIGVELRGWSEKGVKRFVREFDVIDVTDPLLRIPLHKGSVNYYRLHGKYEGGKIIYNHSYSDEELKKIRERVLGWNVEESFVFFNNTSMCRDAKRFKLILDLH,soluble
12,MSLKNLDINIVSEVRRIDNGRLDIPVYFSVCGDDASQYTGTKKQMGKGASPIQSEASACMELAERFSFFSFSKNADNFLLGDYEEMRAAGYPVLDMEHLLKSVHDTHTTVAQLEKLLAGIPMQWTWATKMTGEEGEVLIPFSWFFAINEFNGPSAGNTQEEAALQGLCEIVERDVCSRINRDKLPTAKIDVETIKDPVAVELLEKFAKNNIEVYLNDFSLETGIASVGALAIDRSTFPEKSEIVYTAGTTPNPEKAIIRAITEVAQLAGDFNTGSNYIASGLPKPLSMSEVTYLTETADQVTIDEMVDISDDNIYTEVKNCLDSLKNNGFDVYMIDVCHPQLQIPALYTIIPGAHFRERSMICNAGLFCAKLLVERIEDPAEQEVKLGEMSVLEGHHHHHH,not soluble
13,MSLRVIDSHTAGEPTRVVLDGGPDLGSGTLAERAARLEAEHLDFCASVMLEPRGHDAIIGALLVPPSDPACAAGVIYFNNLQNLGMCGHATIGLGVTLAHLGRIRPGRHRFETPVGVVEIDLIDANTVSVVNIESYRLAKDVTVEVEGVGPVTGDVAWGGNWFFMVKNSPIALTGANIRPLTDLTLKIRTALEKAGVTGKDGAWIDHIELFGPAEDPAAQSRNFVLCPGGAYDRSPCGTGCSAKMACLAADGALAPGQDYLQESVIGSTYKISYQPGPGGGVIPTITGQAFVTSDATLIFNPADPYRSGIRLEGHHHHHH,soluble
14,MVVNYPRAYTAEQSRPINLVGKQGQAVQISIHYPSQYICANRERILPDWQEQALFWVVIVLQQSKYPLVKSTAEIEREKEHLREKFMRFGCDLAFELRDRGYLADLIDPRTGYPMLSRPGVIPHNDTAVVKALLNYPVLKNKCSVIVHPHWGTAVYPSIFLSAALEHHHHHH,not soluble
15,MRVLGIETSCDETGIAVYDDKAGLLANQLYSQVKLHADYGGVVPELASRDHVRKTVPLIQAALKEANLSAKDIDAVAYTAGPGLVGALLVGATIGRALAFAWGVPAVPVHHMEGHLLAPMLEENAPEFPFVALLVSGGHTQLISVTGIGEYLLLGESVDDAAGEAFDKTAKLLGLDYPGGPMLSRMAQQGTVGRFTFPRPMTDRPGLDFSFSGLKTFAANTIRANGDDDQTRADIARAFEDAVVDTLAIKSKRALDQTGFKRLVIAGGVSANQTLRLKLADMMQKRGGEVFYARPEFCTDNGAMIAYAGMVRLRSNLNSELSVSVRPRWPLSELPKV,not soluble
16,INLEDPRSFLGRELPGFAQFDTEILLAGQGTDYTNMPAESPPPSKVMEEEREANLAEIEKQQTQSDNAQKDPPKQTTGDKKVVFIYHTHNTESYLPLLKGETDPDMARHSKANVTLVGDMFGQALESQGIGATVNKTDIQSKLNKKGLNYARSYDESRPVVKDALASNKNLQYIIDIHRDSRRKKDTTATIKGKSYARVAFVVGKKSKNFEENYKIASELHKLMEKKYPGLSTGVFSKGSPGDNGVYNQDLTDRALLLEFGGVDNNLEELQRAANAAADVFSEMYWDAEKVNAASGE,not soluble
17,MVLALITLVVSAFLIPEVLADPCGDSNWRYFPQTNSCYKLIDENLPWTIAEFKCLFQGAHHVSIDSPEENQFVHELSRWSEIWTGAAFFGKDQHYVNSDGSRYGNFENWKDGRKPPMNRARRCIKMDGNGEWFQSCCKKKTFTICEKKAAYSASSYSGSNNSVNGFRFMRHRS,not soluble
18,MPSNPQQSSRATPDRPSGSDESVIVERIYKAVMEQRLAPKTKLSEARLCETFGVGRMRVRRALLLLSSQGIIELQSNRGAYVACPDTAEANEVFAARMLIEPPLVRQLAQSSGNIDLTILTEHIALEDAARERKERTEIIRLSGEFHTKLAQATGNKFIFRMMRELVTRTSLIVGLFGSSENASCPDDEHNNILKAIQSQDPEMAETLLISHLNHIQNGLDMDMRQVPQDDLAAILGSD,not soluble
19,AVPKIRIAVPSKGRISEPAIRLLENAGVGLKDTVNRKLFSKTQHPQIEVMFSRAADIPEFVADGAADLGITGYDLIVERGSDVEILEDLKYGRASLVLAAPEDSTIRGPEDIPRGAVIATEFPGITENYLREHGIDAEVVELTGSTEIAPFIGVADLITDLSSTGTTLRMNHLRVIDTILESSVKLIANRESYATKSGIIEELRTGIRGVIDAEGKRLVMLNIDRKNLDRVRALMPGMTGPTVSEVLSDNGVVAVHAVVDEKEVFNLINRLKAVGARDILVVPIERIIP,soluble
20,MGSDKIHHHHHHMERYSGRIFDNHFHLNPKSNFLGAANIFKRSGGTTLNLTNLPSHDAITEYYRRLYDDTIRIGDLVHYELGLEMLITIGPYPFDYFFFERYGSDPVNEMMHGLDLAAKYIEDGKAEAIGEIGFPHVPQPESVMERFWEMLDYAMKIAHDVDAPIVMHTYDLSCEDYAKIEKIAKVNGSVSVVKHHARPSDLTCNTGIARSVPASRSAVRKSLLLSRNFMLETDFINDPIDANRFLPPDSVPKRAQMILQEYDDGSEILNNIFNTIPESIYPKLKEKR,not soluble
21,MGSDKIHHHHHHMEFQLDKDWRLQPIKGATGQTYMGIKETEKVFIKRNTSPLLAALSKEGLAPKMIWTKRTANGDVLTAQEWLEGRLLHADEIGKRNDVIDVLYQLHHSNLLKDMLKKIGGEVCTPLTMLKEYKRQLPKELKRNSYLKEVITYLYNHLPEYPETSYVAVHGDVNHRNWLVSNNYLYLVDWDSVMVADPAVDLGMILSHYVPRSGWNQWLLSYGLIPNESTVQRIYWYGLFSFLQEIVRHHQEGERRAMTAEILQLKRMFSI,not soluble
